5 molecules from patent US20090203610A1, “METHODS OF TREATING OBESITY OR DIABETES USING NT-4/5” (RINAT NEUROSCIENCE CORPORATION, priority 2004, published 2009) can be followed below.

Numbering of substitutions follows the chain as printed. Names may count otherwise.

The target of test [1] is T1, human TrkB (Homo sapiens, UniProt Q16620).
T1 construct: expressed in transfected cells
In words: Receptor tyrosine phosphorylation (KIRA) in TrkB expressing cell line. The class given is cell-based. The settings on record: for functional binding with TrkB in the KIRA assay: single cysteine mutants. The text has this:
Method of making pegylated NT-4/5 (S50C): The native form of NT-4/5 used in this study was produced according to the method described in U.S. Pat. No. 6,184,360. A site-directed pegylated NT-4/5 was also produced. The structure of NT-4/5 in complex with domain 5 of TrkB was examined to find amino acid side chains that would be surface available and unlikely to interfere with natural disulfide bonds and also unlikely to interfere in either the interactions between the monomer subunits of NT-4/5 or the TrkB domain 5 to create a PEG attaching site. […] […] Mutant proteins were expressed in E. coli, solubilized, extracted, purified and refolded as the native NT-4/5. To pegylate the refolded NT4-S50C, NT4-Q105C, and NT-4-E67C, first a mild reduction with 0.1 mM DTT (dithiothreitol) was performed. Excess DTT was removed by dialysis against 50 mM sodium acetate at pH 6, then a 5 molar excess of mPEG-maleimide (M. W. of 10,000 Da, SunBio, Inc., South Korea) was incubated with the protein at 37° C. for several days with gentle agitation. Pegylated protein, non-pegylated protein and unreacted PEG were separated via ion exchange or size exclusion chromatography.
Assays of TrkB specific activation by pegylated NT-4/5: Stable cell lines expressing human TrkA, TrkB or TrkC were used to determine the functional activity, i.e. receptor phosphorylation, of NT-4/5 and pegylated NT-4/5 as previously described (Sadick et al. Experimental Cell Research 234: 354-361, 1997).
Assays of TrkB specific activation by pegylated NT-4/5: Stable cell lines expressing human TrkA, TrkB or TrkC were used to determine the functional activity, i.e. receptor phosphorylation, of NT-4/5 and different forms of pegylated NT-4/5 as previously described (Sadick et al. Experimental Cell Research 234: 354-361, 1997).

Test [2] has as its system NONcNZO-10 polygenic obese mice. Nature of the test: Non-fasting blood triglyceride level in NONcNZO-10 mice (Example 4, Table 18). As to conditions: NONcNZO-10 mice, mean. Further details: non-fasting blood triglyceride level: unit not given here. The class given is in vivo. The text has this: (§1) Test animals: 40 male NONcNZO-10 polygenic obese mice obtained from Jackson Laboratory at 10 weeks of age weighing in the range of 26-32 g were used in this study.
(§2) Administration of NT-4/5: NT-4/5 was produced in E. coli as descried in U.S. Pat. No. 6,184,360. The mice were divided into 6 groups of equivalent body weight and baseline blood glucose distribution (6-7 mice per group). […] A “paired-fed” control group received daily injection of vehicle, but were only fed with the same amount of food the 3 mg/kg group consumed the previous day. On the day when the treatment started (day 1), a baseline blood samples were collected for measuring glucose and triglyceride. Triglyceride level was measured on day 10. At the end of the study (day 12), a terminal blood sample was collected to determine glucose, triglyceride, electrolytes (Na, K, Cl), testoterone, corticosterone, thyroid hormone (total T4) and thyroid stimulating hormone (TSH) levels. Electrolytes, free testosterone, T4 and TSH levels of serum samples were measured by AniLytics (Gaithesburg, M.D) according to the standard protocols employed by the vendor. Other analytes were measured as described above. Body weight, food intake were monitored 5 days per week through out the entire study. Daily water intake was measured from day 5 through day 7.

Test [3] shares this test system. Nature of the test: Food intake in NONcNZO-10 mice (Example 4, Table 20). The test is classed as in vivo. Further details: unit not given here. The settings on record: NONcNZO-10 mice, mean.
Text: as §1, §2

Test [4] has the same test system. Nature of the test: Body weight in NONcNZO-10 mice (Example 4, Table 19). The test is classed as in vivo. Further details: body weight: unit not given here. As to conditions: NONcNZO-10 mice, mean.
Text: as §1, §2

T1 sequence (Q16620 32-822): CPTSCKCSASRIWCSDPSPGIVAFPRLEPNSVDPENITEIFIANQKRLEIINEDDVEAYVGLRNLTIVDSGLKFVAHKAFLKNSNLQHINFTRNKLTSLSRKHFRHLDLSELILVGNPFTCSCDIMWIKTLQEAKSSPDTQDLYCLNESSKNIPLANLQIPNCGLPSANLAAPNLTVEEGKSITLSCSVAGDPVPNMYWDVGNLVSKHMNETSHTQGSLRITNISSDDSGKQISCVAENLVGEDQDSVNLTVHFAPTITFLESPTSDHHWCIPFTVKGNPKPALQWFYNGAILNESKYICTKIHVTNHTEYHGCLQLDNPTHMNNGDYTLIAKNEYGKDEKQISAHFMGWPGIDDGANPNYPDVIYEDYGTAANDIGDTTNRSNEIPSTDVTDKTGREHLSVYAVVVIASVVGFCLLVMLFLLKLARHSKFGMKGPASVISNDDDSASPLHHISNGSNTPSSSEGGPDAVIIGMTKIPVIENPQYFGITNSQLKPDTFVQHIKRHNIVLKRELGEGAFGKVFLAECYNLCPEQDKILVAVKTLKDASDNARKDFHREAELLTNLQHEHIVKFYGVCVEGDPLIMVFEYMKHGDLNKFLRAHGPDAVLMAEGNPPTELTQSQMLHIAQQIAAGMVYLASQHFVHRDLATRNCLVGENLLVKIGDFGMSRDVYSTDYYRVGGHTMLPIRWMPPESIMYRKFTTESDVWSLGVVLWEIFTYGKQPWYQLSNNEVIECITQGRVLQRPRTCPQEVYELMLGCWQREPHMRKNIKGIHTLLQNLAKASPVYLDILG

B1: S50C: single cysteine mutant of mature human NT-4/5, serine 50 to cysteine (protein)
chain: GVSETAPASRRGELAVCDAVSGWVTDRRTAVDLRGREVEVLGEVPAAGGCPLRQYFFETRCKADNAEEGGPGAGGGGCRGVDRRHWVSECKAKQSYVRALTADAQGRVGWRWIRIDTACVCTLLSRTGRA
Regarding B1, in test [1], the “functional binding with TrkB in the KIRA assay” value (“functional binding with TrkB” for short) is “found possible”.

B2: Pegylated NT-4/5(E67C): NT-4/5 with glutamic acid 67 changed to cysteine, pegylated with mPEG-maleimide (10,000 Da) (conjugate)
chain: B1 chain with C50S, E67C
On to B2, for which the “receptor tyrosine phosphorylation of TrkB-expressing cell line” value in test [1] is recorded as “active in activating TrkB receptor”.

B3: NT4 (protein)
chain: B1 chain with C50S
Consider B3, for which the “non-fasting blood triglyceride level” value in test [2] (0.1 mg/kg s.c. daily, Day 1 (baseline)) is listed as 291.7; in test [2] (0.1 mg/kg s.c. daily, Day 10), 172.7; in test [2] (0.3 mg/kg s.c. daily, Day 1 (baseline)), 279.3; in test [2] (0.3 mg/kg s.c. daily, Day 10) it was 208.0; in test [2] (1 mg/kg s.c. daily, Day 1 (baseline)), 307.7; in test [2] (1 mg/kg s.c. daily, Day 10), 226.3. Besides, the “non-fasting blood triglyceride level” value in test [2] (3 mg/kg s.c. daily, Day 1 (baseline)) is 306.1; in test [2] (3 mg/kg s.c. daily, Day 10), 226.3. Further, the food intake in test [3] (0.1 mg/kg s.c., Day 1) turned out to be 5.17; in test [3] (0.1 mg/kg s.c., Day 2), 5.50; in test [3] (0.1 mg/kg s.c., Day 3) it was 5.83; in test [3] (0.1 mg/kg s.c., Day 4) it was 6.00; in test [3] (0.1 mg/kg s.c., Day 5), 5.50; in test [3] (0.1 mg/kg s.c., Day 8) it was 4.50. For the same molecule, the food intake in test [3] (0.1 mg/kg s.c., Day 9) came out at 4.83; in test [3] (0.1 mg/kg s.c., Day 10), 5.00; in test [3] (0.3 mg/kg s.c., Day 1), 5.32; in test [3] (0.3 mg/kg s.c., Day 2), 5.67; in test [3] (0.3 mg/kg s.c., Day 3), 5.33; in test [3] (0.3 mg/kg s.c., Day 4), 5.67. Moreover, the food intake in test [3] (0.3 mg/kg s.c., Day 5) is on record as 4.83; in test [3] (0.3 mg/kg s.c., Day 8), 4.33; in test [3] (0.3 mg/kg s.c., Day 9) it was 4.50; in test [3] (0.3 mg/kg s.c., Day 10), 4.67; in test [3] (1 mg/kg s.c., Day 1) it was 5.07; in test [3] (1 mg/kg s.c., Day 2), 5.43. The food intake in test [3] (1 mg/kg s.c., Day 3) was 4.86; in test [3] (1 mg/kg s.c., Day 4), 4.71; in test [3] (1 mg/kg s.c., Day 5), 4.43; in test [3] (1 mg/kg s.c., Day 8), 3.93; in test [3] (1 mg/kg s.c., Day 9), 4.00; in test [3] (1 mg/kg s.c., Day 10) it was 4.14. Moreover, the food intake in test [3] (3 mg/kg s.c., Day 1) is on record as 5.13; in test [3] (3 mg/kg s.c., Day 2) it was 4.86; in test [3] (3 mg/kg s.c., Day 3), 4.29; in test [3] (3 mg/kg s.c., Day 4), 4.29; in test [3] (3 mg/kg s.c., Day 5) it was 4.00; in test [3] (3 mg/kg s.c., Day 8), 3.86. For the same molecule, the food intake in test [3] (3 mg/kg s.c., Day 9) was determined as 3.57; in test [3] (3 mg/kg s.c., Day 10), 3.86. Further, the body weight is given as 100.0 in test [4] (0.1 mg/kg s.c., Day 1); 97.7 in test [4] (0.1 mg/kg s.c., Day 2); 100.0 in test [4] (0.1 mg/kg s.c., Day 3); 102.2 in test [4] (0.1 mg/kg s.c., Day 4); 104.5 in test [4] (0.1 mg/kg s.c., Day 5); 102.2 in test [4] (0.1 mg/kg s.c., Day 8). The body weight in test [4] (0.1 mg/kg s.c., Day 9) is 102.8; in test [4] (0.1 mg/kg s.c., Day 10), 103.3; in test [4] (0.1 mg/kg s.c., Day 11), 105.1; in test [4] (0.3 mg/kg s.c., Day 1), 100.0; in test [4] (0.3 mg/kg s.c., Day 2), 98.3; in test [4] (0.3 mg/kg s.c., Day 3), 98.9. Besides, the body weight in test [4] (0.3 mg/kg s.c., Day 4) is given as 100.6; in test [4] (0.3 mg/kg s.c., Day 5) it was 101.8; in test [4] (0.3 mg/kg s.c., Day 8), 101.2; in test [4] (0.3 mg/kg s.c., Day 9), 102.4; in test [4] (0.3 mg/kg s.c., Day 10), 102.9; in test [4] (0.3 mg/kg s.c., Day 11), 104.1. Further, the body weight in test [4] (1 mg/kg s.c., Day 1) is on record as 100.0; in test [4] (1 mg/kg s.c., Day 2) it was 97.1; in test [4] (1 mg/kg s.c., Day 3) it was 94.8; in test [4] (1 mg/kg s.c., Day 4) it was 98.2; in test [4] (1 mg/kg s.c., Day 5), 99.2; in test [4] (1 mg/kg s.c., Day 8), 97.7. Also, the body weight in test [4] (1 mg/kg s.c., Day 9) is listed as 97.6; in test [4] (1 mg/kg s.c., Day 10), 97.6; in test [4] (1 mg/kg s.c., Day 11) it was 99.0; in test [4] (3 mg/kg s.c., Day 1), 100.0; in test [4] (3 mg/kg s.c., Day 2), 95.6; in test [4] (3 mg/kg s.c., Day 3), 94.6. Besides, the body weight in test [4] (3 mg/kg s.c., Day 4) is 94.6; in test [4] (3 mg/kg s.c., Day 5) it was 94.6; in test [4] (3 mg/kg s.c., Day 8), 92.2; in test [4] (3 mg/kg s.c., Day 9), 92.2; in test [4] (3 mg/kg s.c., Day 10), 92.7; in test [4] (3 mg/kg s.c., Day 11) it was 92.6.

B4: Q105C: single cysteine mutant of mature human NT-4/5 at position 105 (protein)
chain: B1 chain with C50S, Q105C
In the case of B4, the “functional binding with TrkB” value in test [1] was “found possible”.

B5: E67C: single cysteine mutant of mature human NT-4/5, glutamic acid 67 to cysteine (protein)
chain: B1 chain with C50S, E67C
As for B5, the “functional binding with TrkB” value in test [1] is on record as “found possible”.
